The values that follow come from patent US20200199231A1.

This test deals with human CD20 (human) (UniProt P11836). The test can be described thus: flow cytometry on Daudi cells (CD20-positive, CD3-negative); PE-conjugated goat anti-human IgG F(ab')2; geomean (PE). On the technique in general: A flow cytometer gives signals particle by particle.
Chain of human CD20 (human) (P11836 whole entry): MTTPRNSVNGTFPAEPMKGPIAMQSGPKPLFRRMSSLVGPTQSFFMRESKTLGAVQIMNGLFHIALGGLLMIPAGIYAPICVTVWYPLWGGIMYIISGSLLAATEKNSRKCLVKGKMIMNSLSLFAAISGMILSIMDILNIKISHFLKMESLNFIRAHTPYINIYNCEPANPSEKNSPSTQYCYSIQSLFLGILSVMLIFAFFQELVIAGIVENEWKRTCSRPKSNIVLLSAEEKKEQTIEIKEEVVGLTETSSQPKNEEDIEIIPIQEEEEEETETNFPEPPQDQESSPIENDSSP

With IgG1-GA101 (antibody), the EC50 (read off the curve) (as a rule, the concentration that produces a half-maximal response) came to 0.6 µg/mL.
The result for IgG1-RTX (antibody) reads 0.7 µg/mL.
